Reference: patent publication US20190201500A1 (ONL THERAPEUTICS, published 2019)
No end group written: not given here.

Molecular target: T1, Fas receptor on 661W photoreceptor cells (UniProt P25446 22-327, limits assumed)
T1 sequence (looked up): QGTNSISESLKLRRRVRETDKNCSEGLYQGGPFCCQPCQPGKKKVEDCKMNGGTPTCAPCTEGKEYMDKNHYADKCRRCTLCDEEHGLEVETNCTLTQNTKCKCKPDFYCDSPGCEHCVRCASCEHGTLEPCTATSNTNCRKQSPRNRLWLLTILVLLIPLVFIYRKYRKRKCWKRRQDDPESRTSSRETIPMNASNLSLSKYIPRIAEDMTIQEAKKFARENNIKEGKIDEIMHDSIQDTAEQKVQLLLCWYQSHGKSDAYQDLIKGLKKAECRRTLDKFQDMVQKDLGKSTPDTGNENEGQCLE
Experiment: cell-based or functional assay

With “human recombinant FasL (from UniProt P48023 134-281) (ligand)” as the molecule, how does the caspase 8 activity in 661W cell lysates (dose of peak activity) read?
The caspase 8 activity in 661W cell lysates (dose of peak activity) was 500 ng/mL.

What about the increase of caspase 8 activity in 661W cells of the same molecule?
The increase of caspase 8 activity in 661W cells was 20 to 30%.

HHIYLGAVNYIY (also: trihydrochloride salt) [Met-12 (HHIYLGAVNYIY)] was tested. Which “EC50, inhibition of FasL-induced caspase 8 activation in 661W cells” value did it give?
Its value is 4000 nM.

For HHIYLGAVNYIY-NH2 (also: trihydrochloride salt) [Compound 1 (His-His-Ile-Tyr-Leu-Gly-Ala-Val-Asn-Tyr-Ile-Tyr-NH2), C-terminal amide of Met-12], which “EC50, inhibition of FasL-induced caspase 8 activation in 661W cells” value is on record?
The value was 400 nM.

What about the “fold potency against Met-12 by IC50 determination” value of the same molecule?
The value was 10 fold.

And the “fold potency against Met-12 by the concentration of maximal inhibition” value?
The value was ~3 fold.
